Reference: article PMC8000408, “Inhibition of NUPR1–Karyopherin β1 Binding Increases Anticancer Drug Sensitivity” (International Journal of Molecular Sciences, 2021)

What was measured:
[1] = biological target: T1, Cy5-labeled karyopherin β1 (KPNB1) (UniProt Q14974 1-876, Cy5 label (site not stated)); experiment: single-molecule pull-down (TIRF microscopy); GST-NUPR1 (100 nM) immobilised on PEG-coated quartz via neutravidin and biotin-conjugated GST-tag antibody; 5 nM Cy5-labeled KPNB1 in imaging buffer (4 mM Trolox, 0.2% glucose, 50 mM NaCl, pyranose oxidase, catalase); spots counted up to 1 h, then unbound KPNB1 washed out for dissociation; exponential fits; conditions: both partners purified
T1 construct: Karyopherin β1 (KPNB1, importin β1); also called importin β1; Cy5-KPNB1
T1 sequence (Q14974 whole entry): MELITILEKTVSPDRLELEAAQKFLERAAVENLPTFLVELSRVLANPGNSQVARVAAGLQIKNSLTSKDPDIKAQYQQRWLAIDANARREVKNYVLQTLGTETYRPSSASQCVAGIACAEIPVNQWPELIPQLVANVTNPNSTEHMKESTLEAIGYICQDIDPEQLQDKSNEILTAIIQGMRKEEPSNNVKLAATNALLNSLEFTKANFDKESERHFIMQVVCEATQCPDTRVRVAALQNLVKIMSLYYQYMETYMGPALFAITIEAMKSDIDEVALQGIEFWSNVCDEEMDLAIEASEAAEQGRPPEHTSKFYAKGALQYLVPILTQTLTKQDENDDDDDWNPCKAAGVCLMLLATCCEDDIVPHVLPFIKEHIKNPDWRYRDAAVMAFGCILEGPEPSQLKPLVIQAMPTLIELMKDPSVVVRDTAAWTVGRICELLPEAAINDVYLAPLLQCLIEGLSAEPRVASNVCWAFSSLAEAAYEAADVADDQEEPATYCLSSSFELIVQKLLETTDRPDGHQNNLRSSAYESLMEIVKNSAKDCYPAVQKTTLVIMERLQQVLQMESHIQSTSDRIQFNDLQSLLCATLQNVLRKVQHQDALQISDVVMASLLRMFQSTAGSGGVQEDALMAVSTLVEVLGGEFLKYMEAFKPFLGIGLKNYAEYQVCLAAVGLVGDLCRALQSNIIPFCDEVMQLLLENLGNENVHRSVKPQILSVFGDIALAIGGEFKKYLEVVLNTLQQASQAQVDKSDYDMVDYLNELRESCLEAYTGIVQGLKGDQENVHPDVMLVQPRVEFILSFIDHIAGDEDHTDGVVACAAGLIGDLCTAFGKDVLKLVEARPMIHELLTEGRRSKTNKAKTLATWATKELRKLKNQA

[2] = biological target: T1, Cy5-labeled karyopherin β1 (KPNB1); experiment: single-molecule pull-down (TIRF microscopy); GST-NUPR1 immobilised; observed rate constants at various concentrations of karyopherin β1, fitted with a Michaelis-Menten equation; conditions: both partners purified

Kd [1]: ~0.65 nM
koff [1]: 0.0003 s⁻¹
kon [1]: 467000 M⁻¹ s⁻¹
Kd [2]: 0.75 nM
B1: GST-NUPR1 (nuclear protein-1) recombinant protein (natural protein, UniProt O60356 1-82, looked up)
chain: MATFPPATSAPQQPPGPEDEDSSLDESDLYSLAHSYLGGGGRKGRTKREAAANTNRPSPGGHERKLVTKLQNSERKKRGARR
notes: Nuclear protein-1 (NUPR1, p8/Com-1); Held on the PEG-coated quartz surface through neutravidin and a biotin-conjugated GST-tag antibody; No catalogue number is printed; also called p8; Com-1; source: bought: NOVUS Biologicals (recombinant protein)
